Laboratory results as given in US20200308559A1, “Composition for detecting protein-protein interactions comprising fragments of secreted alkaline phosphatase (SEAP) and method for detecting protein-protein interactions using the same” (priority 2019, published 2020).

Target: T1, interaction (binding) between FKBP12 and FRB (Homo sapiens, UniProt P42345+P62942)
T1 construct: FLAG-FRB expression vector; expressed in transfected cells; host or cells: HEK-293T (ATCC CRL-11268)
Test: Split SEAP fragment complementation: SEAP activity in culture supernatant (pNpp, absorbance 405 nm) after rapamycin-induced FKBP12-FRB binding
Assay type: cell-based
Details: HEK-293T cells, same manner as Example 2; for SEAP activity of the pair pSNA379 with pSCA373 or pSCB373 (FIG. 6): N-terminal fragment cleaved at 379, C-terminal fragment cleaved at 372; for SEAP activity of the pair pSNA387 with pSCA380 (FIG. 6): N-terminal fragment cleaved at 387, C-terminal fragment cleaved at 379; for SEAP activity of the pair pSNA404 with pSCA388 or pSCB388 (FIG. 6): N-terminal fragment cleaved at 404, C-terminal fragment cleaved at 387; for SEAP activity of the pair pSNA418 with pSCA405 or pSCB405 (FIG. 6): N-terminal fragment cleaved at 418, C-terminal fragment cleaved at 404
Procedure: HEK-293T (Human embryonic kidney cell, ATCC: CRL-11268) cells were cultured in DMEM (Dulbecco's modified Eagle's media, Gibco, Seoul, South Korea) treated with a 10% (v/v) FBS (HyClone) and 1% (v/v) penicillin/streptomycin solution (HyClone) and cultured at 37° C. in a humidified atmosphere containing 5% CO2.
HEK-293T cells were seeded at 2×10^4 cells per well in a 48-well plate and cultured until 24 hours before transformation.
For the transformation, 0.15 μL of PEI (PEI, <20,000 MW, Cat. No. 23966, Polysciences, Inc., Warrington, Pa., USA; stock solution: 4 mg/mL in ddH20, pH 7.2) was mixed with 0.2 pLg of DNA, and the mixture was vortexed for 5 seconds and then incubated for 20 minutes at 25° C. to prepare 40 μL of DNA-PEI mixture per well. At this time, the DNA was prepared by mixing a vector (pSNA series) containing a SEAP N-terminal fragment and a vector (pSCA or pSCB series) containing a SEAP C-terminal fragment.
After 24 hours of the transformation, the culture medium was replaced with DMEM with 100 nM rapamycin or DMEM without rapamycin.
SEAP activity was measured after 24 hours. The SEAP activity was measured in a time course using a p-nitrophenylphosphate (pNpp)-based absorbance (405 nm) measuring method. 80 μL of a culture medium supernatant, 100 μL of a 2× SEAP buffer solution (21% diethanolamine, 20 mM L-homoarginine, and 1 mM MgCl2, pH 9.8), and 20 μL of 120 mM pNpp were mixed and reacted with one another, and then absorbance at 405 nm was measured.

T1 sequence (P62942 whole entry): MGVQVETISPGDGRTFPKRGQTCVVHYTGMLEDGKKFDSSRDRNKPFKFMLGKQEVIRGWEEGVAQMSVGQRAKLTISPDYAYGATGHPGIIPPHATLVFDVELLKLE
T1 sequence (P42345 2012-2144): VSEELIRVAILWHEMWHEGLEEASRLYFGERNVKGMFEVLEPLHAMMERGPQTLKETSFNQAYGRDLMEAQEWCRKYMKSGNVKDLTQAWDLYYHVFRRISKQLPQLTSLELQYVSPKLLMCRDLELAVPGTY

pSNA379: HA-FKBP-snSEAP fusion: SEAP N-terminal fragment (1-379) fused to C-terminal of FKBP12, expression vector
SEAP activity of the pair pSNA379 with pSCA373 or pSCB373 (FIG. 6): excellent SEAP activity

pSNA387: HA-FKBP-snSEAP fusion: SEAP N-terminal fragment (1-387), expression vector
SEAP activity of the pair pSNA387 with pSCA380 (FIG. 6): excellent SEAP activity

pSNA404: HA-FKBP-snSEAP fusion: SEAP N-terminal fragment (1-404), expression vector
SEAP activity of the pair pSNA404 with pSCA388 or pSCB388 (FIG. 6): excellent SEAP activity

pSNA418: HA-FKBP-snSEAP fusion: SEAP N-terminal fragment (1-418), expression vector
SEAP activity of the pair pSNA418 with pSCA405 or pSCB405 (FIG. 6): excellent SEAP activity

B1: pSCB388: scSEAP-FRB-FLAG fusion: SEAP C-terminal fragment (388-502), cleaved at position 387, expression vector (protein)
chain: YTVLLYGNGPGYVLKDGARPDVTESESGSPEYRQQSAVPLDEETHAGEDVAVFARGPQAHLVHGVQEQTFIAHVMAFAACLEPYTACDLAPPAGTTDAAHPGYSRVGAAGRFEQTKGSGSTSGSGILWHEMWHEGLEEASRLYFGERNVKGMFEVLEPLHAMMERGPQTLKETSFNQAYGRDLMEAQEWCRKYMKSGNVKDLTQAWDLYYHVFRRISK
modifications: left off: small tags and cut ends
notes: scSEAP-FRB-FLAG fusion: SEAP C-terminal fragment (388-502), cleaved at position 387, expression vector
SEAP activity of the pair pSNA404 with pSCA388 or pSCB388 (FIG. 6): excellent SEAP activity

B2: pSCA405: FLAG-FRB-scSEAP fusion: SEAP C-terminal fragment (405-502), cleaved at position 404, expression vector (protein)
chain: ILWHEMWHEGLEEASRLYFGERNVKGMFEVLEPLHAMMERGPQTLKETSFNQAYGRDLMEAQEWCRKYMKSGNVKDLTQAWDLYYHVFRRISKKGSGSTSGSGARPDVTESESGSPEYRQQSAVPLDEETHAGEDVAVFARGPQAHLVHGVQEQTFIAHVMAFAACLEPYTACDLAPPAGTTDAAHPGYSRVGAAGRFEQT
modifications: left off: small tags and cut ends
notes: FLAG-FRB-scSEAP fusion: SEAP C-terminal fragment (405-502), cleaved at position 404, expression vector
SEAP activity of the pair pSNA418 with pSCA405 or pSCB405 (FIG. 6): excellent SEAP activity

B3: pSCA373: FLAG-FRB-scSEAP fusion: SEAP C-terminal fragment (373-502), cleaved at position 372, expression vector (protein)
chain: ILWHEMWHEGLEEASRLYFGERNVKGMFEVLEPLHAMMERGPQTLKETSFNQAYGRDLMEAQEWCRKYMKSGNVKDLTQAWDLYYHVFRRISKKGSGSTSGSGSIFGLAPGKARDRKAYTVLLYGNGPGYVLKDGARPDVTESESGSPEYRQQSAVPLDEETHAGEDVAVFARGPQAHLVHGVQEQTFIAHVMAFAACLEPYTACDLAPPAGTTDAAHPGYSRVGAAGRFEQT
modifications: left off: small tags and cut ends
notes: FLAG-FRB-scSEAP fusion: SEAP C-terminal fragment (373-502), cleaved at position 372, expression vector
SEAP activity of the pair pSNA379 with pSCA373 or pSCB373 (FIG. 6): excellent SEAP activity

B4: pSCA380: FLAG-FRB-scSEAP fusion: SEAP C-terminal fragment (380-502), cleaved at position 379, expression vector (protein)
chain: ILWHEMWHEGLEEASRLYFGERNVKGMFEVLEPLHAMMERGPQTLKETSFNQAYGRDLMEAQEWCRKYMKSGNVKDLTQAWDLYYHVFRRISKKGSGSTSGSGGKARDRKAYTVLLYGNGPGYVLKDGARPDVTESESGSPEYRQQSAVPLDEETHAGEDVAVFARGPQAHLVHGVQEQTFIAHVMAFAACLEPYTACDLAPPAGTTDAAHPGYSRVGAAGRFEQT
modifications: left off: small tags and cut ends
notes: FLAG-FRB-scSEAP fusion: SEAP C-terminal fragment (380-502), cleaved at position 379, expression vector
SEAP activity of the pair pSNA387 with pSCA380 (FIG. 6): excellent SEAP activity

B5: pSCB405: scSEAP-FRB-FLAG fusion: SEAP C-terminal fragment (405-502), cleaved at position 404, expression vector (protein)
chain: ARPDVTESESGSPEYRQQSAVPLDEETHAGEDVAVFARGPQAHLVHGVQEQTFIAHVMAFAACLEPYTACDLAPPAGTTDAAHPGYSRVGAAGRFEQTKGSGSTSGSGILWHEMWHEGLEEASRLYFGERNVKGMFEVLEPLHAMMERGPQTLKETSFNQAYGRDLMEAQEWCRKYMKSGNVKDLTQAWDLYYHVFRRISK
modifications: left off: small tags and cut ends
notes: scSEAP-FRB-FLAG fusion: SEAP C-terminal fragment (405-502), cleaved at position 404, expression vector
SEAP activity of the pair pSNA418 with pSCA405 or pSCB405 (FIG. 6): excellent SEAP activity

B6: pSCB373: scSEAP-FRB-FLAG fusion: SEAP C-terminal fragment (373-502), cleaved at position 372, expression vector (protein)
chain: SIFGLAPGKARDRKAYTVLLYGNGPGYVLKDGARPDVTESESGSPEYRQQSAVPLDEETHAGEDVAVFARGPQAHLVHGVQEQTFIAHVMAFAACLEPYTACDLAPPAGTTDAAHPGYSRVGAAGRFEQTKGSGSTSGSGILWHEMWHEGLEEASRLYFGERNVKGMFEVLEPLHAMMERGPQTLKETSFNQAYGRDLMEAQEWCRKYMKSGNVKDLTQAWDLYYHVFRRISK
modifications: left off: small tags and cut ends
notes: scSEAP-FRB-FLAG fusion: SEAP C-terminal fragment (373-502), cleaved at position 372, expression vector
SEAP activity of the pair pSNA379 with pSCA373 or pSCB373 (FIG. 6): excellent SEAP activity

B7: pSCA388: FLAG-FRB-scSEAP fusion: SEAP C-terminal fragment (388-502), cleaved at position 387, expression vector (protein)
chain: ILWHEMWHEGLEEASRLYFGERNVKGMFEVLEPLHAMMERGPQTLKETSFNQAYGRDLMEAQEWCRKYMKSGNVKDLTQAWDLYYHVFRRISKKGSGSTSGSGYTVLLYGNGPGYVLKDGARPDVTESESGSPEYRQQSAVPLDEETHAGEDVAVFARGPQAHLVHGVQEQTFIAHVMAFAACLEPYTACDLAPPAGTTDAAHPGYSRVGAAGRFEQT
modifications: left off: small tags and cut ends
notes: FLAG-FRB-scSEAP fusion: SEAP C-terminal fragment (388-502), cleaved at position 387, expression vector
SEAP activity of the pair pSNA404 with pSCA388 or pSCB388 (FIG. 6): excellent SEAP activity
